Legend:
[1] = target: T1, rat TIMP-1 (rat, UniProt P30120 24-217); assay: cell-based or functional assay
[2] = target: T1, rat TIMP-1; assay: SPR (BIAcore), TIMP-1 coupled to chip, monovalent Fab
Protocol: For affinity determination, monomeric fractions of affinity and SEC purified Fab fragments or purified IgG1 molecules were used. All experiments were conducted in HBS buffer at a flow rate of 20 μl/min at 25° C. on a BIAcore™ instrument. Antigens in 100 mM sodium acetate pH 5.0 were coupled to a CM 5 sensor chip using standard EDC-NHS coupling chemistry. […] All sensograms were fitted globally using BIA evaluation software. For monovalent Fab fragments a monovalent fit (Langmuir binding) and for IgGs a bivalent fit was applied.

T1 sequence (P30120 24-217 limits assumed): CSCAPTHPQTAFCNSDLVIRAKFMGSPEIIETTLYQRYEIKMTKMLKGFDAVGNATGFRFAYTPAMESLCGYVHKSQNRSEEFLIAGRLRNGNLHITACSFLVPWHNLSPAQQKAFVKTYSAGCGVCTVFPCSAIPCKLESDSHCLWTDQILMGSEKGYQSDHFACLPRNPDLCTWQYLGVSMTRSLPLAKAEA

Binder	IC50 in rat protease assay [1]	Kd [2]
MS-BW-6 (Fab, V domains shown, Fab, FLAG + Strep-tag II; not tied by name) VH: not shown VL: DIVLTQPPSVSGAPGQRVTISCSGSSSNIGSNYVSWYQQLPGTAPKLLIYDNNQRPSGVPDRFSGSKSGTSASLAITGLQSEDEADYYCQSYDQRKWVFGGGTKLTVLG	~100 nM	~68 nM
MS-BW-7 (Fab, V domains shown) VH: QVQLVQSGAEVKKPGSSVKVSCKASGGTFSSYAISWVRQAPGQGLEWMGGIIPIFGTANYAQKFQGRVTITADESTSTAYMELSSLRSEDTAVYYCARTYYYFDSWGQGTLVTVSS VL: not shown	> 300 nM	~168 nM
MS-BW-9 (Fab, V domains shown, Fab, FLAG + Strep-tag II; not tied by name) VH: not shown VL: DIVLTQPPSVSGAPGQRVTISCSGSSSNIGSNYVSWYQQLPGTAPKLLIYDNNQRPSGVPDRFSGSKSGTSASLAITGLQSEDEADYYCQSYDGFKTHVFGGGTKLTVLG	> 300 nM	~256 nM
MS-BW-10 (Fab, V domains shown, Fab, FLAG + Strep-tag II; not tied by name) VH: QVQLVQSGAEVKKPGASVKVSCKASGYTFTSYYMHWVRQAPGQGLEWMGWINPNSGGTNYAQKFQGRVTMTRDTSISTAYMELSSLRSEDTAVYYCARLVGIVGYKPDELLYFDVWGQGTLVTVSS VL: DIELTQPPSVSVAPGQTARISCSGDALGDKYASWYQQKPGQAPVLVIYDDSDRPSGIPERFSGSNSGNTATLTISGTQAEDEADYYCQSYDYSLLVFGGGTKLTVLG	~30 nM	~200 nM
MS-BW-11 (Fab, V domains shown, Fab, FLAG + Strep-tag II; not tied by name) VH: not shown VL: DIELTQPPSVSVAPGQTARISCSGDALGDKYASWYQQKPGQAPVLVIYDDSDRPSGIPERFSGSNSGNTATLTISGTQAEDEADYYCQSYDFNFHVFGGGTKLTVLG	> 300 nM	~200 nM
MS-BW-12 (Fab, V domains shown, Fab, FLAG + Strep-tag II; not tied by name) VH: QVQLQQSGPGLVKPSQTLSLTCAISGDSVSSNSAAWNWIRQSPGRGLEWLGRTYYRSKWYNDYAVSVKSRITINPDTSKNQFSLQLNSVTPEDTAVYYCARGYADISFDYWGQGTLVTVSS VL: DIALTQPASVSGSPGQSITISCTGTSSDVGGYNYVSWYQQHPGKAPKLMIYDVSNRPSGVSNRFSGSKSGNTASLTISGLQAEDEADYYCQSYDMIARYPVFGGGTKLTVLG	> 300 nM	~419 nM
MS-BW-15 (Fab, V domains shown, Fab, FLAG + Strep-tag II; not tied by name) VH: not shown VL: DIALTQPASVSGSPGQSITISCTGTSSDVGGYNYVSWYQQHPGKAPKLMIYDVSNRPSGVSNRFSGSKSGNTASLTISGLQAEDEADYYCQSYDVLDSEVFGGGTKLTVLG	~200 nM	~80 nM
MS-BW-62 (Fab, V domains shown, Fab, FLAG + Strep-tag II; not tied by name) VH: QVQLVQSGAEVKKPGESLKISCKGSGYSFTSYWIGWVRQMPGKGLEWMGIIYPGDSDTRYSPSFQGQVTISADKSISTAYLQWSSLKASDTAMYYCARLFTYPFLYFDVWGQGTLVTVSS VL: DIALTQPASVSGSPGQSITISCTGTSSDVGGYNYVSWYQQHPGKAPKLMIYDVSNRPSGVSNRFSGSKSGNTASLTISGLQAEDEADYYCQSDFPVMVFGGGTKLTVLG	19 nM	~36 nM
MS-BW-31 (Fab, V domains shown, Fab, FLAG + Strep-tag II; not tied by name) VH: QVQLVQSGAEVKKPGESLKISCKGSGYSFTSYWIGWVRQMPGKGLEWMGIIYPGDSDTRYSPSFQGQVTISADKSISTAYLQWSSLKASDTAMYYCARLYADADIYFDYWGQGTLVTVSS VL: DIALTQPASVSGSPGQSITISCTGTSSDVGGYNYVSWYQQHPGKAPKLMIYDVSNRPSGVSNRFSGSKSGNTASLTISGLQAEDEADYYCQSYDLSPRVFGGGTKLTVLG	> 100 nM	~13 nM
MS-BW-5 (Fab, V domains shown, Fab, FLAG + Strep-tag II; not tied by name) VH: QVQLVQSGAEVKKPGSSVKVSCKASGGTFSSYAISWVRQAPGQGLEWMGGIIPIFGTANYAQKFQGRVTITADESTSTAYMELSSLRSEDTAVYYCARGLYWAVYPYFDFWGQGTLVTVSS VL: DIVLTQPPSVSGAPGQRVTISCSGSSSNIGSNYVSWYQQLPGTAPKLLIYDNNQRPSGVPDRFSGSKSGTSASLAITGLQSEDEADYYCQSRDFNRGPVFGGGTKLTVLG	–	~210 nM
MS-BW-13 (Fab, V domains shown, Fab, FLAG + Strep-tag II; not tied by name) VH: not shown VL: DIELTQPPSVSVAPGQTARISCSGDALGDKYASWYQQKPGQAPVLVIYDDSDRPSGIPERFSGSNSGNTATLTISGTQAEDEADYYCQSWDIHPFDVVFGGGTKLTVLG	–	~939 nM

Further lines, results first:

IC50 in rat protease assay [1]	Kd [2]	Binder
> 300 nM	~153 nM	MS-BW-18 (Fab, V domains shown, Fab, FLAG + Strep-tag II; not tied by name) VH: QVQLVQSGAEVKKPGESLKISCKGSGYSFTSYWIGWVRQMPGKGLEWMGIIYPGDSDTRYSPSFQGQVTISADKSISTAYLQWSSLKASDTAMYYCARLVGGGYDLMFDSWGQGTLVTVSS VL: DIALTQPASVSGSPGQSITISCTGTSSDVGGYNYVSWYQQHPGKAPKLMIYDVSNRPSGVSNRFSGSKSGNTASLTISGLQAEDEADYYCQSYDDMQFVFGGGTKLTVLG
> 300 nM	~187 nM	MS-BW-19 (Fab, V domains shown, Fab, FLAG + Strep-tag II; not tied by name) VH: QVQLVQSGAEVKKPGESLKISCKGSGYSFTSYWIGWVRQMPGKGLEWMGIIYPGDSDTRYSPSFQGQVTISADKSISTAYLQWSSLKASDTAMYYCARYVTYGYDDYHFDYWGQGTLVTVSS VL: DIALTQPASVSGSPGQSITISCTGTSSDVGGYNYVSWYQQHPGKAPKLMIYDVSNRPSGVSNRFSGSKSGNTASLTISGLQAEDEADYYCQSWDINHAIVFGGGTKLTVLG
> 300 nM	~70 nM	MS-BW-20 (Fab, V domains shown, Fab, FLAG + Strep-tag II; not tied by name) VH: QVQLVQSGAEVKKPGSSVKVSCKASGGTFSSYAISWVRQAPGQGLEWMGGIIPIFGTANYAQKFQGRVTITADESTSTAYMELSSLRSEDTAVYYCARSGYLDYWGQGTLVTVSS VL: DIALTQPASVSGSPGQSITISCTGTSSDVGGYNYVSWYQQHPGKAPKLMIYDVSNRPSGVSNRFSGSKSGNTASLTISGLQAEDEADYYCQSYDYYDYGVFGGGTKLTVLG
65 nM	35 nM	MS-BW-22 (Fab, V domains shown, Fab, FLAG + Strep-tag II; not tied by name) VH: QVQLVQSGAEVKKPGESLKISCKGSGYSFTSYWIGWVRQMPGKGLEWMGIIYPGDSDTRYSPSFQGQVTISADKSISTAYLQWSSLKASDTAMYYCARFRAYGDDFYFDVWGQGTLVTVSS VL: DIALTQPASVSGSPGQSITISCTGTSSDVGGYNYVSWYQQHPGKAPKLMIYDVSNRPSGVSNRFSGSKSGNTASLTISGLQAEDEADYYCQSWDNLKMPVVFGGGTKLTVLG
> 300 nM	~207 nM	MS-BW-23 (Fab, V domains shown, Fab, FLAG + Strep-tag II; not tied by name) VH: QVQLVQSGAEVKKPGASVKVSCKASGYTFTSYYMHWVRQAPGQGLEWMGWINPNSGGTNYAQKFQGRVTMTRDTSISTAYMELSSLRSEDTAVYYCARIMWSDYGQLVKGGDIWGQGTLVTVSS VL: DIALTQPASVSGSPGQSITISCTGTSSDVGGYNYVSWYQQHPGKAPKLMIYDVSNRPSGVSNRFSGSKSGNTASLTISGLQAEDEADYYCQSYDVFPINRVFGGGTKLTVLG
20 nM	23 nM	MS-BW-24 (Fab, V domains shown, Fab, FLAG + Strep-tag II; not tied by name) VH: QVQLVQSGAEVKKPGESLKISCKGSGYSFTSYWIGWVRQMPGKGLEWMGIIYPGDSDTRYSPSFQGQVTISADKSISTAYLQWSSLKASDTAMYYCARYYVTDTAYFDYWGQGTLVTVSS VL: DIALTQPASVSGSPGQSITISCTGTSSDVGGYNYVSWYQQHPGKAPKLMIYDVSNRPSGVSNRFSGSKSGNTASLTISGLQAEDEADYYCQSDLYFPVFGGGTKLTVLG
20 nM	~14 nM	MS-BW-63 (Fab, V domains shown, Fab, FLAG + Strep-tag II; not tied by name) VH: QVQLVQSGAEVKKPGESLKISCKGSGYSFTSYWIGWVRQMPGKGLEWMGIIYPGDSDTRYSPSFQGQVTISADKSISTAYLQWSSLKASDTAMYYCARILTGHVLLFDYWGQGTLVTVSS VL: DIALTQPASVSGSPGQSITISCTGTSSDVGGYNYVSWYQQHPGKAPKLMIYDVSNRPSGVSNRFSGSKSGNTASLTISGLQAEDEADYYCQSDNPYLVFGGGTKLTVLG
> 100 nM	~214 nM	MS-BW-29 (Fab, V domains shown, Fab, FLAG + Strep-tag II; not tied by name) VH: QVQLVQSGAEVKKPGESLKISCKGSGYSFTSYWIGWVRQMPGKGLEWMGIIYPGDSDTRYSPSFQGQVTISADKSISTAYLQWSSLKASDTAMYYCARHDFDGSIFMDFWGQGTLVTVSS VL: DIALTQPASVSGSPGQSITISCTGTSSDVGGYNYVSWYQQHPGKAPKLMIYDVSNRPSGVSNRFSGSKSGNTASLTISGLQAEDEADYYCQSYDVTPRVFGGGTKLTVLG
> 100 nM	10 nM	MS-BW-37 (Fab, V domains shown, Fab, FLAG + Strep-tag II; not tied by name) VH: QVQLVQSGAEVKKPGESLKISCKGSGYSFTSYWIGWVRQMPGKGLEWMGIIYPGDSDTRYSPSFQGQVTISADKSISTAYLQWSSLKASDTAMYYCARLFAGLELYFDYWGQGTLVTVSS VL: DIALTQPASVSGSPGQSITISCTGTSSDVGGYNYVSWYQQHPGKAPKLMIYDVSNRPSGVSNRFSGSKSGNTASLTISGLQAEDEADYYCQSYDLRNRVFGGGTKLTVLG
> 100 nM	~36 nM	MS-BW-30 (Fab, V domains shown, Fab, FLAG + Strep-tag II; not tied by name) VH: QVQLVQSGAEVKKPGESLKISCKGSGYSFTSYWIGWVRQMPGKGLEWMGIIYPGDSDTRYSPSFQGQVTISADKSISTAYLQWSSLKASDTAMYYCARYAGHQYEFFFDFWGQGTLVTVSS VL: DIELTQPPSVSVAPGQTARISCSGDALGDKYASWYQQKPGQAPVLVIYDDSDRPSGIPERFSGSNSGNTATLTISGTQAEDEADYYCQSRDPVGFPVFGGGTKLTVLG
–	~138 nM	MS-BW-58 (Fab, V domains shown, Fab, FLAG + Strep-tag II; not tied by name) VH: QVQLQQSGPGLVKPSQTLSLTCAISGDSVSSNSAAWNWIRQSPGRGLEWLGRTYYRSKWYNDYAVSVKSRITINPDTSKNQFSLQLNSVTPEDTAVYYCARWMTPPGHYYGYTFDVWGQGTLVTVSS VL: DIELTQPPSVSVAPGQTARISCSGDALGDKYASWYQQKPGQAPVLVIYDDSDRPSGIPERFSGSNSGNTATLTISGTQAEDEADYYCQSWDPSHYYVFGGGTKLTVLG
